US20050287597

B1: FLAG-tagged human SIRT2 (C-terminal FLAG tag) (protein)
chain: MAEPDPSHPLETQAGKVQEAQDSDSDSEGGAAGGEADMDFLRNLFSQTLSLGSQKERLLDELTLEGVARYMQSERCRRVICLVGAGISTSAGIPDFRSPSTGLYDNLEKYHLPYPEAIFEISYFKKHPEPFFALAKELYPGQFKPTICHYFMRLLKDKGLLLRCYTQNIDTLERIAGLEQEDLVEAHGTFYTSHCVSASCRHEYPLSWMKEKIFSEVTPKCEDCQSLVKPDIVFFGESLPARFFSCMQSDFLKVDLLLVMGTSLQVQPFASLISKAPLSTPRLLINKEKAGQSDPFLGMIMGLGGGMDFDSKKAYRDVAWLGECDQGCLALAELLGWKKELEDLVRREHASIDAQSGAGVPNPSTSASPKKSPPPAKDEARTTEREKPQ
B2: FLAG-tagged human SIRT3 (C-terminal FLAG tag) (protein)
chain: MAFWGWRAAAALRLWGRVVERVEAGGGVGPFQACGCRLVLGGRDDVSAGLRGSHGARGEPLDPARPLQRPPRPEVPRAFRRQPRAAAPSFFFSSIKGGRRSISFSVGASSVVGSGGSSDKGKLSLQDVAELIRARACQRVVVMVGAGISTPSGIPDFRSPGSGLYSNLQQYDLPYPEAIFELPFFFHNPKPFFTLAKELYPGNYKPNVTHYFLRLLHDKGLLLRLYTQNIDGLERVSGIPASKLVEAHGTFASATCTVCQRPFPGEDIRADVMADRVPRCPVCTGVVKPDIVFFGEPLPQRFLLHVVDFPMADLLLILGTSLEVEPFASLTEAVRSSVPRLLINRDLVGPLAWHPRSRDVAQLGDVVHGVESLVELLGWTEEMRDLVQRETGKLDGPDK
B3: FLAG-tagged human SIRT1 (C-terminal FLAG tag) (protein)
chain: MADEAALALQPGGSPSAAGADREAASSPAGEPLRKRPRRDGPGLERSPGEPGGAAPEREVPAAARGCPGAAAAALWREAEAEAAAAGGEQEAQATAAAGEGDNGPGLQGPSREPPLADNLYDEDDDDEGEEEEEAAAAAIGYRDNLLFGDEIITNGFHSCESDEEDRASHASSSDWTPRPRIGPYTFVQQHLMIGTDPRTILKDLLPETIPPPELDDMTLWQIVINILSEPPKRKKRKDINTIEDAVKLLQECKKIIVLTGAGVSVSCGIPDFRSRDGIYARLAVDFPDLPDPQAMFDIEYFRKDPRPFFKFAKEIYPGQFQPSLCHKFIALSDKEGKLLRNYTQNIDTLEQVAGIQRIIQCHGSFATASCLICKYKVDCEAVRGDIFNQVVPRCPRCPADEPLAIMKPEIVFFGENLPEQFHRAMKYDKDEVDLLIVIGSSLKVRPVALIPSSIPHEVPQILINREPLPHLHFDVELLGDCDVIINELCHRLGGEYAKLCCNPVKLSEITEKPPRTQKELAYLSELPPTPLHVSEDSSSPERTSPPDSSVIVTLLDQAAKSNDDLDVSESKGCMEEKPQEVQTSRNVESIAEQMENPDLKNVGSSTGEKNERTSVAGTVRKCWPNRVAKEQISRRLDGNQYLFLPPNRYIFHGAEVYSDSEDDVLSSSSCGSNSDSGTCQSPSLEEPMEDESEIEEFYNGLEDEPDVPERAGGAGFGTDGDDQEAINEAISVKQEVTDMNYPSNKS

Target: synthetic Tat (72 amino acids) carrying an N-terminal biotin label and an acetyl group at position 50

Row | Protein | in vitro Tat deacetylation (western blot with antibodies specific for acetylated lysine 50 in Tat)
1 | B1 | resulted in deacetylation of Tat lysine 50
2 | B2 | resulted in deacetylation of Tat lysine 50
3 | B3 | resulted in deacetylation of Tat lysine 50
